{
  "source": "the PETadex activity labels (doi:10.1042/bj3320075)",
  "proteins": {"B1": {"name": "unnamed (protein)", "chain": "MKPENKLPVLDLISAEMKTVVNTLQPDLPPWPATGTIAEQRQYYTLERRFWNAGAPEMATRAYMVPTKYGQVETRLFCPQPDSPATLFYLHGGGFILGNLDTHDRIMRLLASYSQCTVIGIDYTLSPEARFPQAIEEIVAACCYFHQQAEDYQINMSRIGFAGDSAGAMLALASALWLRDKQIDCGKVAGVLLWYGLYGLRDSVTRRLLGGVWDGLTQQDLQMYEEAYLSNDADRESPYYCLFNNDLTREVPPCFIAGAEFDPLLDDSRLLYQTLAAHQQPCEFKLYPGTLHAFLHYSRMMKTADEALRDGAQFFTAQL"}},
  "settings_in_all_cases": "pH 7.1; 25 °C",
  "key": {"p-NP-C2": {"substrate": "p-NP-C2"}, "p-NP-C3": {"substrate": "p-NP-C3"}, "p-NP-C4": {"substrate": "p-NP-C4"}, "p-NP-C5": {"substrate": "p-NP-C5"}, "p-NP-C6": {"substrate": "p-NP-C6"}, "p-NP-C8": {"substrate": "p-NP-C8"}},
  "data": [
    {"protein": "B1", "values": [
      {"measurement": "Km", "setting": "p-NP-C2", "result": 1500, "unit": "µM"},
      {"measurement": "kcat", "setting": "p-NP-C2", "result": 30.8, "unit": "s⁻¹"},
      {"measurement": "kcat/Km", "setting": "p-NP-C2", "result": 20500, "unit": "M⁻¹ s⁻¹"},
      {"measurement": "Km", "setting": "p-NP-C3", "result": 700, "unit": "µM"},
      {"measurement": "kcat", "setting": "p-NP-C3", "result": 30.9, "unit": "s⁻¹"},
      {"measurement": "kcat/Km", "setting": "p-NP-C3", "result": 44100, "unit": "M⁻¹ s⁻¹"},
      {"measurement": "Km", "setting": "p-NP-C4", "result": 500, "unit": "µM"},
      {"measurement": "kcat", "setting": "p-NP-C4", "result": 30.9, "unit": "s⁻¹"},
      {"measurement": "kcat/Km", "setting": "p-NP-C4", "result": 61800, "unit": "M⁻¹ s⁻¹"},
      {"measurement": "Km", "setting": "p-NP-C5", "result": 260, "unit": "µM"},
      {"measurement": "kcat", "setting": "p-NP-C5", "result": 20.5, "unit": "s⁻¹"},
      {"measurement": "kcat/Km", "setting": "p-NP-C5", "result": 78800, "unit": "M⁻¹ s⁻¹"},
      {"measurement": "Km", "setting": "p-NP-C6", "result": 220, "unit": "µM"},
      {"measurement": "kcat", "setting": "p-NP-C6", "result": 6.2, "unit": "s⁻¹"},
      {"measurement": "kcat/Km", "setting": "p-NP-C6", "result": 28200, "unit": "M⁻¹ s⁻¹"},
      {"measurement": "Km", "setting": "p-NP-C8", "result": 160, "unit": "µM"},
      {"measurement": "kcat", "setting": "p-NP-C8", "result": 0.21, "unit": "s⁻¹"},
      {"measurement": "kcat/Km", "setting": "p-NP-C8", "result": 1310, "unit": "M⁻¹ s⁻¹"}
    ]}
  ]
}
